What was measured:
[1] = target: T1, interaction between JUN1 and JunZ (c-Jun dimerization) (Homo sapiens, UniProt P05412); assay: Reverse-2-hybrid screening for inhibition of c-Jun dimerization in yeast; assay type: cell-based; conditions: for yeast survival on media for counter-selection against AP-1 complex formation viz. c-Jun dimerization: initial reverse-two-hybrid screen, clones expressed from pYTB3; for recapitulation of the disruption phenotype: plasmid clones rescued and re-transformed, two assays
T1 construct: Partial fragments of c-Jun i.e., JunZ (774-927 bp) and Jun1 (558-1002 bp); expressed in transfected cells; host or cells: Saccharomyces cerevisiae strain PRT480, mated with library strain PRT51
T1 sequence (P05412 259-309 limits assumed): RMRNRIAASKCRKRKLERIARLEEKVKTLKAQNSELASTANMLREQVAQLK
T1 sequence (P05412 187-331 limits assumed): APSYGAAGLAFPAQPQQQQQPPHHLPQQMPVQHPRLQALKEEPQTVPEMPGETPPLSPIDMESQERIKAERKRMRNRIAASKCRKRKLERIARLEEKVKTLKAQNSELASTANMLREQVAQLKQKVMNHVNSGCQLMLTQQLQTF
Excerpt: The yeast two hybrid system described by Vidal.M., In: The Yeast Two Hybrid System (eds. P. Bartel and S. Fields), Oxford University Press, New York (1997), was modified to add another counter selectable marker (CYH2) and to allow flexible titration of stringency by adjustment of sugar concentrations in the screening media.
Partial fragments of c-Jun i.e., JunZ (774-927 bp) and Jun1 (558-1002 bp), were cloned into yeast two-hybrid vectors pDD (a kanamycin-resistant variant of pGilda bait vector) and pJFK (pYesTrp prey vector (Invitrogen) modified by replacing the TRP1 yeast selection gene with HIS5), respectively, before co-transforming into Saccharomyces cerevisiae strain PRT480 (MATα, his3, trp1, ura3, 4 LexA-LEU2, lys2::3 cIop-LYS2, CAN^R, CYH2^R, ade2::2 LexA-CYH2-ZEO, his5::2 LexA-URA3-G418) using a standard lithium-acetate based chemical transformation protocol.
The Phylomer™ peptide library was transformed into S. cerevisiae strain PRT51 (MATα, his3, trp1, ura3, 6 LexA-LEU2, lys2::3 cIop-LYS2, CYH2^R, ade2::G418-pZero-ade2, met15::Zeo-pBLUE-met15, his5::hygro), using a high-efficiency lithium acetate-based chemical transformation protocol, slightly modified to maximize the number of transformants.
Bait/prey plasmid containing PRT480 haploids (10^8 cells) were mated with the Phylomer™ library (10^7 c.f.u.) according to a liquid mating protocol for pretransformed libraries (Clontech, USA), and plated to HW^− minimal media (minimal media lacking histidine and tryptophan) to select for diploids. These plates were scraped after 2 days incubation at 30° C., and the cells were washed, resuspended 1:1 (v/v) in yeast freezing solution (65% v/v glycerol, 0.1M MgSO4, 25 mM Tris-Cl pH 8.0), and frozen at −80° C. in 1 ml aliquots.
To select peptides that block formation of an AP-1 complex requiring the interaction between JUN1 and JunZ, about 1.5×10^7 c.f.u Jun/Phylomer™ diploids were thawed and outgrown overnight in HW^− to achieve log-phase growth. The following day, 4×10^7 cells were plated onto counter-selective media: HWU^− (lacking histidine, tryptophan and uracil), containing supplements of 0.02% galactose (gal), 2% raffinose (raff), 0.2 μg/ml uracil, 0.06% (w/v) 5-Fluoroorotic acid (FOA), 5 μg/ml cycloheximide. These plates were incubated for 7 days, then colonies were picked to HWU^− 0.02% gal, 2% raff, and then to HWL^− (lacking histidine, tryptophan and leucine) 0.02% gal, 2% raff to confirm blocking phenotype.
These included transformants comprising the clones designated PYC19 [DNA sequence set forth in SEQ ID NO: 26; encoded amino acid sequence set forth in SEQ ID NO: 27 (with FLAG epitope) and 28 (without FLAG epitope)]; PYC35 [DNA sequence set forth in SEQ ID NO: 34; encoded amino acid sequence set forth in SEQ ID NO: 35 (with FLAG epitope) and 36 (without FLAG epitope)]; PYC36 [DNA sequence set forth in SEQ ID NO: 43; encoded amino acid sequence set forth in SEQ ID NO: 44 (with FLAG epitope) and 45 (without FLAG epitope)]; PYC38/39 [DNA sequence set forth in SEQ ID NO: 52; encoded amino acid sequence set forth in SEQ ID NO: 53 (with FLAG epitope) and 54 (without FLAG epitope)]; and PYC41 [DNA sequence set forth in SEQ ID NO: 60; encoded amino acid sequence set forth in SEQ ID NO: 61 (with FLAG epitope) and 62 (without FLAG epitope)].
Subsequently, the individual plasmid clones were rescued from the yeast and re-transformed to confirm the disruption phenotype; 63% of the primary “hits”, including PYC 19, PYC35, […], PYC38/39 and PYC41, were positive in two assays for recapitulation of the phenotype.

[2] = system: neurons around the lesion in the somatosensory cortex; assay: Acute cortical injury (focal traumatic brain injury), immunoreactivity in perilesion area; assay type: in vivo; conditions: acute cortical injury of rat brain tissue in situ
Procedure: The ability of AP-1 signaling-inhibitory peptides to inhibit neuronal apoptosis was assessed by loss of MAP2 immunoreactivity in a focal model of traumatic brain injury (Chung et al., J. Neuroscience 23, 3336-3342, 2003; King et al., Neuropathol Appl Neurobiol. 27, 115-126, 2001).
Rats were subjected to acute cortical injury as previously described by Chung et al., J. Neuroscience 23, 3336-3342 (2003) and King et al., Neuropathol Appl Neurobiol. 27, 115-126 (2001). Briefly, male 240 g Hooded-Wistar rats were deeply anaesthetized using Isofluorane (2-3%) and were given an analgesic (Meloxycam, […]), by subcutaneous injection. Animals were immobilized in a Stoelting stereotactic frame, and a 21 gauge blunt Hamilton syringe was inserted into the Par1 region of the somatosensory cortex to a depth of 2 mm and was left in place for 10 minutes. Then, 0.5 μl of 5 μM peptide was administered through the syringe at a rate of 0.05 μl/min. Peptide (10 μl) was applied to 1 mm^2 of Gelfoam, which was implanted before suturing. At 1 day post-injury (PI), rats were deeply anaesthetized with sodium pentobarbital (60 mg/kg), then perfused transcardially with a 4% paraformalydehyde and 4% sucrose fixative solution in 0.01M PBS. Brains were removed and cryoprotected in 18% and 30% sucrose solutions, respectively and 40 μm coronal sections were collected serially through the injury site for immunohistochemical labelling. All animal procedures were approved by the University of Tasmania Animal Ethics Committee (Permit A008878).
Sections were labelled with Nissl Red, Nuclear Yellow and anti-MAP2 to allow a quantitative assessment of neuronal loss around the lesion. Sections from the lesion centre and 200 μm anterior and posterior to the centre of the injury, at layer III of the neocortex were included in the analysis and the area of MAP2 loss was scored by blinded observers. Three sections from each of three animals were examined for each treatment and significance assessed by ANOVA and post-hoc comparison (Tukey test).
All data are presented as mean±standard error. […]

[3] = system: AP-1 luciferase reporter in K562/AP1-Luc cells; assay: Luciferase reporter gene assay of AP-1 dependent transcriptional activity; assay type: cell-based; conditions: pcDNA3-peptide transfection, 48 hours, normalised to renilla, vs pcDNA3 vector
Procedure: Phylomer™ peptides that inhibit an AP-1 complex formation as described in Example 1 were tested for their ability to decrease AP-1 controlled reporter expression (since Jun dimers are AP-1 moieties). A transient transfection assay in which the expression of each clone was plasmid driven was employed, thereby avoiding the synthesis of large numbers of peptides.
The K562 cell line was stably-transfected with the AP-1 luciferase reporter (AP1-Luc) of the Mercury Pathway Profiling kit (Clontech, U.S.A.), and the clonal cell line K562/AP1-Luc was established. In 6-well tissue culture plate format, K562/AP1-Luc cells were transfected with either pcDNA3 control, pcDNA3-JunDN (a dominant negative mutant of c-Jun), or pcDNA3-peptide, using Lipofectamine2000 (Life Technologies) according to manufacturer's instructions. Transfection reactions were incubated for 48 hours, cells collected and protein lysates extracted for luciferase assay according to Mercury Pathway Profiling kit and associated protocols.
Luciferase assays were performed in independent triplicates, and results for each peptide subjected to statistical analysis (SPSS software package) to determine if they were different to JunDN (positive control for AP-1 inhibition) or pcDNA-3 (negative control for AP-1 inhibition).
All AP-1 luciferase values were normalised to the renilla expression from a cotransfection control. Under these experimental conditions, approximately 30% of Phylomer™ peptides decreased AP-1 reporter activity by at least 50% when compared to the vector-only control (i.e., pcDNA3 vector). More particularly, the peptides designated PYC35, PYC36, PYC38/39 and PYC41 reduced AP-1 reporter activity to approximately 35%, 44%, 47% and 48%, respectively of the level observed for the control sample.

| recapitulation of the disruption phenotype [1] | Substance | yeast survival on media for counter-selection against AP-1 complex formation viz. c-Jun dimerization [1] | astrogliosis as determined by glial fibrillary acidic protein immunoreactivity [2] | loss of neurons as determined by MAP2 immunoreactivity [2] | microglial activation as determined by ferritin immunoreactivity [2] | AP-1 reporter activity, of the level observed for the control sample [3] |
| --- | --- | --- | --- | --- | --- | --- |
| positive | PYC19: Phylomer clone; encoded amino acid sequence SEQ ID NO: 27 (with FLAG epitope) and 28 (without FLAG epitope) (LINQSYAYPYIY; PYC19L peptide) | allowed yeast survival | – | – | – | – |
| positive | PYC35: Phylomer clone; encoded amino acid sequence SEQ ID NO: 35 (with FLAG epitope) and 36 (without FLAG epitope) (AYQSIRSGGIESSSKRER; PYC35L peptide) | allowed yeast survival | reduced astrogliosis | reduced loss of neurons | reduced microglial activation | approximately 35% |
| positive | PYC36: Phylomer clone; encoded amino acid sequence SEQ ID NO: 44 (with FLAG epitope) and 45 (without FLAG epitope) (GLQGRRRQGYQSIKP; PYC36L peptide) | allowed yeast survival | – | – | – | ~44% |
| positive | PYC38/39: Phylomer clone; encoded amino acid sequence SEQ ID NO: 53 (with FLAG epitope) and 54 (without FLAG epitope) (GLQGRRQPGQQPQGRWSGRALPAHR; PYC38/39L peptide) | allowed yeast survival | – | – | – | ~47% |
| positive | PYC41: Phylomer clone; encoded amino acid sequence SEQ ID NO: 61 (with FLAG epitope) and 62 (without FLAG epitope) (VSINQEHHRLLPL; PYC41L peptide) | allowed yeast survival | – | – | – | ~48% |

— patent US8063012B2, “Neuroprotective peptide inhibitors of AP-1 signaling and uses therefor” (Phylogica Limited, priority 2006, dated 2011)
